This series is described as follows: soluble on expression in E. coli; label from the status in PepcDB or PDB records.
Take “MKPRETKLLGSIREAIEKTGLKDGMTISFHHHFREGDYVMNLVLAEIAAMGLKNISIAPSSIANVHEPLIEHIKNGVVTNITSSGLRDKVGAAISAGIMENPVVIRSHGGRARAVAAGDIHIDVAFLGAPSSDAYGNANGTKGKATCGSLGYAMVDAKYADQVVIITDTLVPYPNTPISIPQTDVDYVVEIDAIGDPDGIAKGATRFTKNPKELLIAEYAAKIITHSPYYKEGFSFQTGTGGSSLAVTRFMREQMLKDGIKASFALGGITNAMVELLEEGLVEKIIDVQDFDHPSAISLGENANHYEIDANMYASPLSKGAVINQLDTAILSALEVDTDFNVNVITGSDGVIRGASGGHSDTSMACKMSLVIAPLVRGRIPTIVEQVNTVVTPGTSVDVVVTEVGIAINPKRTDLIDCFKTLDVPQFTLEELKDKAYNIVGTPEPIKYGDKVVALIEYRDGSLIDVVRNVLEHHHHHH”: the “soluble on expression in E. coli” value is on record as “soluble”.

As for “MKPVSGSFSGYHPMATVSEQPVAKPRASESPQSESIEERPACLAPVAGAGQPLPGASSSLSAYLLLRRLDHRPVSQEGINALTPADEAVVEARNALPFGRGNVGVDAQKTDLESSIRTRSVMRLTRDAEAAGHTPMRGVDADMNWNVLVAMSGRIFGAGNCREHARIASFAYGGLAQESGRSSEEKIHLATKAGVDHVWVETDHPDADSSPMVIDPWANGSAILAEDSRFAKDRSAVTRTDTFDLSLAAEAGQIAKATAEEALAHTQGRLQQRLASERPDAVPLESGRYREEVSVLDDTFARRVGQKVNTADPRGMLNVELEAVGVAMSLGGEGVKPLTQEASQIVEKAKKFASPGGMPRDA”, the “soluble on expression in E. coli” value is reported as “not soluble”.

Take “MKQFKRGIERDGTGFVVLMAEEAEDMWHIYNLIRIGDIIKASTIRKVVSETSTGTTSSQRVHTMLTVSVESIDFDPGAQELHLKGRNIEENDIVKLGAYHTIDLEPNRKFTLQKTEWDSIDLERLNLALDPAQAADVAAVVLHEGLANVCLITPAMTLTRAKIDMTIPRKRKGFTSQHEKGLEKFYEAVSTAFMRHVNLQVVKCVIVASRGFVKDAFMQHLIAHADANGKKFTTEQRAKFMLTHSSSGFKHALKEVLETPQVALRLADTKAQGEVKALNQFLELMSTEPDRAFYGFNHVNRANQELAIETLLVADSLFRAQDIETRRKYVRLVESVREQNGKVHIFSSMHVSGEQLAQLTGCAAILRFPMPDLDDEPMDEN”: the “soluble on expression in E. coli” value is recorded as “not soluble”. For “MKQGTMKILFFVLKTKLLKNGEAPILMRITINGQYEETRIQRSVPLKLWNAAKGCSKGKDRASNELNSYLSELATRALEKYKELILEQAISTPSLILKRVFGKDTEMRTLLGTIRQEIKEMEKVVNIDYAPVTINRYKNVLKKLENSIPTFYDKEDITFHELTPEFIKAFDLHLKTEVGLCRNTIVRYMKCFKKITNMALAKGWMKKDAFYGYKMEQDETDPVFLTYDELQTVMNKEFTIPRLVLVRDIFIFACFTGLAFADVSTLKKEDLVQDNNGDWWIRKGRIKLMHRHKASSICNIPLLPVPLAILKKYENNPVCIKKGCCLPVPCNQKMNSYLKEIADFCGIKKNITTHAGRHTFGTTITLANNVPLQDVSVMLGHASTRMTQHYARVMNASLKKSMLNVKKRLTQ” the value was “not soluble”. Next, “MKQKKAWAIVKEVIEEADIVVEVVDARDPIGTRNKKLERMVLESGKKLLLVMNKADLVPKEWAEEYKRKSEIPVVFISARERKGTGILRRELKKIAKMINKERVKVALIGYPNVGKSTIINVLKGKHSVGTAPIPGYTKGKQMIRLTKKIWLLDTPGVVPIDDFDELVIKGGFPADKIREPVKPALKLIRRILETRKEALTEKFNITEFEDEEDILRKIGERRGIIREGGVVDIEETARWFLREWQTGRFTLFSTEEKREEEYIESFDEILEIIKEQNLTDPRMIIWKFGNILEDYLGAERRFGAIKVGEFMIAIATGFKKCPNAIKFVERITRKNAVAAECFGKKWKGIVAILE”: “soluble”. Next, “MKQLNGGNVYRPTGKEKNLQAILNIHRHVIQNISPVTITAGKTLDIKIDNQSHILLITKGAIKVCRRIDSIVMGCGVSPMILGLVDAYADLYQLEENSDVFFIAETTCEYYPVPVKDFVEIADEKHLWRDISNILMYRIAFMTNRDRNLIGQDAYSQIKALLLELWSYPESSRFEINAQNFIQQRTGLSRSRIMQVLSELKAGDYIKILHGRLLELRNLPVSF”: “not soluble”; “MKQTPPLISFITICYNGLDDTCMLIESLRDTISSVSYEIIVVDNASRQDEASLIQERYPFVRTLRSEKNLGFSGGNNLGIQIAQGKYLFLINNDTYLTEDGLPALIERLESDPRIGAVSPKIRFAFPPQSIQFAGYTKLSRYTMRNKALGMGCPDDGTFDTPRPSAYLHGAALMLKREVIWKAGLMPEIYFLYYEELDWCTSMTRAGYQLWYEPRCTIFHKESQSTGRQSPLRTFYMMRNRMLYAWRNLPGMERCLAIAYQMLIVAPKDSLCFVLKGEPKLAKAVWHGVKGFWKLC”: “not soluble”. Take “MKQWREKSRQLAERGDLTPADWSNLELYCVNYSIYRKAVADLAARGFSIVNSQGGESRNPALSAKSDAERVMIKMASLLGFDPISRRKNPPETEEEDELDRLE”: the “soluble on expression in E. coli” value is “not soluble”. For “MKRDGHTHTEFCPHGTHDDVEEMILKAIELDFDEYSIVEHAPLSSEFMKNTAGNQEAVTTASMSMSDLPYYFKKMNQMKKKYASDLLIHIGFEVDYLIGYEDFTRDFLNEYGPQTDDGVLSLHFLEGQGGFRSIDFTAEDYNEGIVQFYGGFEQAQLVYLAGVKQSIEADLGAFKPRRIGHISLCQKFQQFFGADGRDFTAEVIAEFEAILALVKKRGYELDFNTAGLFKPLCKETYPPKEIVTLARALEIPFVYGSDSHGVADIGRGYNTYCQK” the value was “not soluble”. For “MKRDRSDYEESMKHIDIVESLMMLSRSFVVKQIDVKQSTGSKTNHNNHFECKTCNRKFDSFQALGGHRASHKKPKLIVDQEQVKHRNKENDMHKCTICDQMFGTGQALGGHMRKHRTSMITEQSIVPSVVYSRPVFNRCSSSKEILDLNLTPLENDLVLIFGKNLVPQIDLKFVN” the value was “soluble”. For “MKRFAFFDVDDTLITVKSMFDFFRYWTLEWRRESAALEAFEREFSQLRAAGESRENLNRAYYRYFAGIRSEDIERAGAAWASAWLAHPERFFIAAPVHLLRELSADGVEPVFVSGSFDAVLRPIADHLSVTNILAAPLELRADGCYTGRIGTPQTIGAGKAVAIRNFLSEQKVRADVCLAVGDDISDLPMLQSVGTAVVVGEHPQLTEIADARSWRRLPAMAE” the value was “not soluble”.

Consider “MKRGEELPPLEIEVTRTLIVAGAIASRDYQDVHHDAESARRRGSPDIFMNILTTNGLVGRYITDHFGPGAVLRKVAIRLGAPNYPGDTMVLTGTVVEVEGDTATVKVIGANGIGTHVRGTVTVTVPPGSASLEHHHHHH”, for which the “soluble on expression in E. coli” value is “not soluble”. For “MKRILLLGGITEALAIARKLGPEHIYSLAGVGRVPTDLACQLKVGGYGGAEGMAQYIRDQGVDLLLDATHPYAAQISRNAALAARIAGIPCWALRRTAWQPGPDDDWREVADWSALVTALAPFKRPLFTLGREPLQHLNEIPKHQFWTLRALDSYPGNDRCEVIGARGPFVLEDERQLFEQRNIDVLISKNSGSSSTEPKLDVARERGLPVLILKRPQLPDVDRILWSVDEVLGVLGLAETSPKPR” the value was “not soluble”. Next, “MKRIPYALVDVFAPAPGAGNRVAVVLDARGMSPEEMQAVAQSLGAAEAAFLLERTGAALSVRFFAPGGEVEFSGHAAVAVGLTAARTGLVPEGTTRLYLHTPTEVLPVELVLEAGEPRKAWVRGPAPRFRDLPPYRALREVLEALGSDERYLHRGLPYGVAFTGLWSLFVPLIAPGVVDALEPEMERLKALCFRLDVATVHAYAPMGPRSFYARDFAPLLGIPEDPVTGSANAALGALLARAGVVPRREGKVLLTVYQGHHLGNPGVVEVQVEYSPTGEPYSVQIGGEAVIVQTGEV”: “soluble”. “MKRLSLREAWPYLKDLQQDPLAVLLEWGRAHPRLFLPLPRFPLALIFDPEGVEGALLAEGTTKATFQYRALSRLTGRGLLTDWGKSWKEARKALKDPFLPKSVRGYREAMEEEAWAFFGEWRGEERDLDHEMLALSLRLLGRALFGKPLSPSLAEHALKALDRIMAQTRSPLALLDLAAEARFRKDRGALYREAEALIVHPPLSHLPRERALSEAVTLLVAGHETVASALTWSFLLLSHRPDWQKRVAESEEAALAAFQEALRLYPPAWILTRRLERPLLLGEDRLPQGTTLVLSPYVTQRLYFPEGEAFQPERFLAERGTPSGRYFPFGLGQRLCLGRDFALLEGPIVLRAFFRRFRLDPLPFPRVLAQVTLRPEGGLPARPREGVRA”: the “soluble on expression in E. coli” value is on record as “soluble”.

As to “MKRLTIEMLPTLIGNEKLLVDCLFILFCTLKTKSLPPIRVLVRTNQSNLILDTLYEKLSKAVDKKLIFVASPEKPFDVIITDIFSEVSVKSTVPTYYVDFSASIGELAQSLENLNTQIVTKQSPRHF”, the “soluble on expression in E. coli” value is listed as “not soluble”.

For the sequence “MKRTIQETPGPSSTTVPPPKKLNSQRNGSNLEPGSIYFTPIGGISVPRQESESSRSLDEILADIRPINSLHFSFMLDFEFLIGSYPPSLREYPITLVVGAPDAPDLLKCTKNQKLVTVVGASLPIPFGTHHTKMSILEDEDGRFHVIVSTANLVPDDWEFKTQQFYYNFGVKIASGTVPRSDFQDDLLEYLSMYRNQLDTWKQLLQKVDFSQISDRLIFSTPGYHTDPPTQRPGHPRLFRILSEKFPFDASYEHTERCTFVAQCSSIGSLGSAPINWFRGQFLQSLEGANPSPKQKPAKMYLVFPSVEDVRTSCQGYAGGCSVPYRNSVHARQKWLQGNMCKWRSNAKRRTNAVPHCKTYVKYDKKVAIWQLLTSANLSKAAWGEVSFNKSKNVEQLMIRSWEMGVLITDPSRFNIPFDYPLVPYSATDEPFVTDKKHEKPDILGCIWTPP”, the “soluble on expression in E. coli” value is reported as “not soluble”.

As for “MKSALSDLAFFGGPAAFDQPLLVGRPNRIDRARLYERLDRALDSQWLSNGGPLVREFEERVAGLAGVRHAVATCNATAGLQLLAHAAGLTGEVIMPSMTFAATPHALRWIGLTPVFADIDPDTGNLDPDQVAAAVTPRTSAVVGVHLWGRPCAADQLRKVADEHGLRLYFDAAHALGCAVDGRPAGSLGDAEVFSFHATKAVNAFEGGAVVTDDADLAARIRALHNFGFDLPGGSPAGGTNAKMSEAAAAMGLTSLDAFPEVIDRNRRNHAAYREHLADLPGVLVADHDRHGLNNHQYVIVEIDEATTGIHRDLVMEVLKAEGVHTRAYFSPGCHELEPYRGQPHAPLPHTERLAARVLSLPTGTAIGDDDIRRVADLLRLCATRGRELTARHRDTAPAPLAAPQTSTPTIGRSRGLEHHHHHH”, the “soluble on expression in E. coli” value is listed as “soluble”.

As for “MKSARKNKNIIIDQNEFGILSLIKEGLLGTCTHLMNEKEVNEIIKSGKFKGESFPYPLSFAPKNAEEALNDIKSGDRIDLMLDEKVVGHIDFKSQFKNNKNFSDIFSPNTCSLEDMGTTCISGKIEIYNSQIEKIKENFQQIKNNLNAQKITAIVSSFDPLHRAHERMFRWTIDKADLVVIFLVESFDVNGFEFELKEAYLKKFIQNYLPPDRIFIFPLKNINIFHAHLNPGLESIIAKSLGCTKLVVGQNHTGLGMFYDDNQPKTILDDFSKDYGIEVIVLPEFVFCDQCRMIVSTRSCPHGCHHHLHYNSQSLKDLLRAGIIPPAIFIRKEVSSVILTSLFPNRLKNMQKIYNELFPTDGILEYKNDEEFYQKLLEIHQMSYMV”, the “soluble on expression in E. coli” value is given as “not soluble”.

With “MKSAYIFFNPKSGKDEQALAKEVKSYLIEHDFQDDYVRIITPSSVEEAVALAKKASEDHIDLVIPLGGDGTINKICGGVYAGGAYPTIGLVPAGTVNNFSKALNIPQERNLALENLLNGHVKSVDICKVNDDY”, the “soluble on expression in E. coli” value is “not soluble”.

Source of the values: the DeepSol protein solubility set.
